From patent US7049292 (dated 2006) come the findings set out here.

For the assay, the target named is HLA-DR4 (human). Description: competition.
Usually IC50 stands for the concentration needed to halve the response being measured. Read a low IC50 as higher potency. Molecule GGGPGAGSLQPLALEGSLQK [preproinsulin C13-C32] returned a concentration for half-maximal inhibition (IC50) of 5000 nM.
As to QPLALEGSLQKRGIVEQ [preproinsulin C22-A5], the IC50 was 400 nM.
In turn, GSLQPLALEGSLQKRGIV [preproinsulin C19-A3] returned a half-maximal inhibitory concentration (IC50) of 500 nM.
Turning to DLQVGQVELGGGPGAGSLQPLALE [preproinsulin C4-C27], the 50% inhibitory concentration (IC50) was determined as 33000 nM.
